Molecular target: SLAMF7 (human) (UniProt Q9NQ25)
Assay: cell-based or functional assay

B1: elotuzumab (antibody, INN chains, looked up, V domains shown)
VH: EVQLVESGGGLVQPGGSLRLSCAASGFDFSRYWMSWVRQAPGKGLEWIGEINPDSSTINYAPSLKDKFIISRDNAKNSLYLQMNSLRAEDTAVYYCARPDGNYWYFDVWGQGTLVTVSS
VL: DIQMTQSPSSLSASVGDRVTITCKASQDVGIAVAWYQQKPGKVPKLLIYWASTRHTGVPDRFSGSGSGTDFTLTISSLQPEDVATYYCQQYSSYPYTFGQGTKVEIKR
g-NK cell-mediated cytotoxicity against elotuzumab-treated MM cell lines, correlation with SLAMF7 expression: 0.96 R^2

Reference: patent US20230190801A1
